The values below come from EP4660205A1 (Beijing Wisdomab Biotechnology Co., Ltd, dated 2025).

Test [1] concerns the target T1, hIL-1R3-His (extracellular domain of human IL-1R3 with C-terminal His tag) (human (homo sapiens), UniProt Q9NPH3 21-359).
T1 sequence: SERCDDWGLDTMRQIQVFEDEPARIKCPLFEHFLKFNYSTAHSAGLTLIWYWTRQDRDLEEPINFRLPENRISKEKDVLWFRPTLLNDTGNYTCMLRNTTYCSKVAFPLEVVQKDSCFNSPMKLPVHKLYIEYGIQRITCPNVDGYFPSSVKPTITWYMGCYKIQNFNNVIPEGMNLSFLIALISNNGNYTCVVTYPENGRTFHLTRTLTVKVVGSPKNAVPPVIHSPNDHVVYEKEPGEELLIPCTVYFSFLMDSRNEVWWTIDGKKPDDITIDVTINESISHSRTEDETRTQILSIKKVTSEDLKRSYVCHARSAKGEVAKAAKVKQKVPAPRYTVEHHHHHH
In words: SPR (Biacore T200), antibody captured by anti-human Fc, hIL-1R3-His as analyte, 1:1 model. On the technique in general: Surface plasmon resonance follows binding to a sensor surface in real time, without labels.

Test [2] has as its target T1, hIL-1R3-His (extracellular domain of …). The test is described as above. The source holds these as a separate data set.
The target of test [3] is T2, hIL-36R-His (extracellular domain of human IL-36R with C-terminal His tag) (human (homo sapiens), UniProt Q9HB29 20-335).
T2 construct: also called human hIL-36R-His
T2 sequence: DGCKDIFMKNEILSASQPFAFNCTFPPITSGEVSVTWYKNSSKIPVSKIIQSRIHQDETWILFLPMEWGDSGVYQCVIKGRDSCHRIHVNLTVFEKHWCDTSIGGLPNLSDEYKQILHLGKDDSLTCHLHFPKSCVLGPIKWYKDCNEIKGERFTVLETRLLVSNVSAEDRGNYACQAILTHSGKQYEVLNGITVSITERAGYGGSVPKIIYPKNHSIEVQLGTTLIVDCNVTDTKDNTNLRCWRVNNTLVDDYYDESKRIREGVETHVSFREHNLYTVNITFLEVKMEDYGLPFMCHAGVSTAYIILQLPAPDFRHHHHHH
The experiment in a line: SPR (Biacore T200), antibody captured by anti-human Fc, hIL-36R-His as analyte, 1:1 model.

Test [4] has as its target T3, human IL-36R on the cell surface (HEK-Blue IL-36 cells, HaCAT cells, human CD14+ monocytes) (human, UniProt Q9HB29 20-575).
T3 sequence (looked up): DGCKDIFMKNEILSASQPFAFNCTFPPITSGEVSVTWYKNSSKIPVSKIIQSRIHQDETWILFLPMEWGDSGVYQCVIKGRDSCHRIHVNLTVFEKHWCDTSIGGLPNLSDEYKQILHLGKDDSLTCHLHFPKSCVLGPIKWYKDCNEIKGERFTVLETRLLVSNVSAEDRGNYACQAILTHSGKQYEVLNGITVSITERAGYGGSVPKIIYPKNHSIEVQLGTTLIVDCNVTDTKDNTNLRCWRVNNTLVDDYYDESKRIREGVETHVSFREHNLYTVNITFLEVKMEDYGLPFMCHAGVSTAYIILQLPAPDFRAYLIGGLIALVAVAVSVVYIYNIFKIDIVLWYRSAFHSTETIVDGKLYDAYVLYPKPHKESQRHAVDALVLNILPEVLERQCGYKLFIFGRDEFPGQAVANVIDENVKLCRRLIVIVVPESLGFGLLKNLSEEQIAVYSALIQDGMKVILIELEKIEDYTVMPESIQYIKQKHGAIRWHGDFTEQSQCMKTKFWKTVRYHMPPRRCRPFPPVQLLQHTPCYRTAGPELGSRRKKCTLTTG
In words: cell-based or functional assay.

In test [5] the target is T1, hIL-1R3-His (extracellular domain of …). The experiment in a line: SPR (Biacore T200), antibody captured by anti-human Fc, hIL-1R3-His as analyte, 1:1 model. The source holds these as a separate data set.
The target in test [6] is T3, human IL-36R on the cell surface …. The experiment in a line: cell-based or functional assay. This is another data set of the same source.
For test [7] the target is unchanged. The experiment in a line: cell-based or functional assay. The source holds these as a separate data set.

Where two headings read alike, the source gives them in different places.

The term Kd denotes the constant that tells how readily two partners part at equilibrium. Lower therefore signals a tighter complex. Broadly, the koff is the first-order rate constant of dissociation. The term kon denotes the rate constant with which the complex forms.

B1: R1B9 (mouse anti-human IL-1R3 monoclonal antibody) (antibody, V domains shown)
VH: EVKLVESGGGLVKPGGSLKLSCAASGFTFSSYAMSWVRQSPEKRLEWVAEISRGGSHTYYPDTVTGRFTISRDNAKNTLYLEMTSLRSEDTALYYCARSYGNYPFDYWGQGTTLTVSS
VL: DIVMTQSPAIMSASPGEKVTMTCSASSSVSYMYWYQQKPGSSPRLLIYDTSNLASGVPVRFSGSGSGTSYSLTISRMEAEDAATYYCQQWSSYPLTFGAGTKLEIK
notes: Found as a mouse scFv on phage; it was captured by anti-human IgG (Fc) in SPR and detected with anti-human IgG-FITC, which points to a human Fc; also called mouse IL-1R3 monoclonal antibody R1B9; parent R1B9
Consider B1, for which, in test [1], the affinity, expressed as Kd, was 1.07 nM; the koff was found to be 0.00011 s⁻¹; the kon worked out at 103000 M⁻¹ s⁻¹. In test [2], this molecule came in with a Kd of 1.24 nM, a koff of 9.32e-05 s⁻¹ and a kon of 75000 M⁻¹ s⁻¹.

B2: Common light chain bispecific antibody (R72B7VH/R1B9VH-h1+L36E9VK) (bispecific antibody, human IgG1, kappa)
heavy 1: QVQLVQSGAEVKKPGASVKVSCKASGYSFTSSWIHWVKQAPGQGLEWMGEINPGNVRSNYNENFRNKVTMTVDTSISTAYMELSRLRSDDTAVYYCTVINYGEPYFASWGQGTLVTVSSASTKGPSVFPLAPSSKSTSEGTAALGCLVKDYFPEPVTVSWNSGALTSGVHTFPAVLQSSGLYSLSSVVTVPSSSLGTQTYICNVDHKPSNTKVDKTVEPKSCDKTHTCPPCPAPEFEGGPSVFLFPPKPKDTLMISRTPEVTCVVVDVSQEDPEVQFNWYVDGVEVHNAKTKPREEQYNSTYRVVSVLTVLHQDWLNGKEYKCKVSNKALPASIEKTISKAKGQPREPQVCTLPPSQEEMTKNQVSLSCAVKGFYPSDIAVEWESNGQPENNYKTTPPVLDSDGSFFLVSKLTVDKSRWQEGNVFSCSVMHEALHNHYTQKSLSLSPGK
heavy 2: EVQLVESGGGLVQPGGSLRLSCAASGFTFSSYAMSWVRQAPGKGLVWVAEISRGGSHTYYPDTVTGRFTISRDNAKNTLYLQMNSLRAEDTAVYYCARSYGNYPFDYWGQGTTVTVSSASTKGPSVFPLAPSSKSTSGGTAALGCLVKDYFPEPVTVSWNSGALTSGVHTFPAVLQSSGLYSLSSVVTVPSSSLGTQTYICNVNHKPSNTKVDKRVEPKSCDKTHTCPPCPAPEFEGGPSVFLFPPKPKDTLMISRTPEVTCVVVDVSHEDPEVKFNWYVDGVEVHNAKTKPREEQYNSTYRVVSVLTVLHQDWLNGKEYKCKVSNKALPASIEKTISKAKGQPREPQVYTLPPCREEMTKNQVSLWCLVKGFYPSDIAVEWESNGQPENNYKTTPPVLDSDGSFFLYSKLTVDKSRWQQGNVFSCSVMHEALHNHYTQKSLSLSPGK
light: EIVLTQSPGTLSLSPGERATLSCRASQSVIGSYLAWYQQKPGQAPRLLIYSASKLASGIPDRFSGSGSGTDFTLTISRLEPEDFAVYYCQQDTRYPITFGQGTKVEIKRTVAAPSVFIFPPSDEQLKSGTASVVCLLNNFYPREAKVQWKVDNALQSGNSQESVTEQDSKDSTYSLSSTLTLSKADYEKHKVYACEVTHQGLSSPVTKSFNRGEC
notes: also called IL-36R×IL-1R3 common light chain bispecific antibody; R72B7/R1B9VH-h1+L36E9VK
In test [3], B2 yielded a Kd of 1.29 nM, a koff of 3.98e-05 s⁻¹ and a kon of 30700 M⁻¹ s⁻¹. Moreover, the “IC50 for inhibiting IL-36γ-induced hIL-8 secretion by human monocytes” value in test [4] was found to be 1.71 pM. In test [5], this molecule returned a Kd of 1.44 nM, a koff of 5.53e-05 s⁻¹ and a kon of 38400 M⁻¹ s⁻¹. Besides, in test [6], the “fold increase of activity by IC50 against Spesolimab, IL-36α, HaCAT hIL-8 secretion” value was around 12 fold; the “fold increase of activity by IC50 against Spesolimab, IL-36β, HaCAT hIL-8 secretion” value is around 4 fold; the “fold increase of activity by IC50 against Spesolimab, IL-36γ, HaCAT hIL-8 secretion” value was around 15 fold; the “fold increase of activity by IC50 against Spesolimab, IL-36γ, hIL-8 secretion by human monocytes” value was around 17 fold. In test [7], the “IC50 for inhibiting IL-36α from inducing hIL-8 secretion by HaCAT cells” value is 7.97 pM, the “IC50 for inhibiting IL-36β from inducing hIL-8 secretion by HaCAT cells” value was found to be 0.027 nM and the “IC50 for inhibiting IL-36γ from inducing hIL-8 secretion by HaCAT cells” value was 0.0453 nM.
